Measured values reported in article PMC12560131.

Assays:
[1] = target: Adalimumab; assay: SPR
[2] = target: Adalimumab–pM440 complex (Mycoplasma genitalium) (UniProt P47523); assay: SPR; single-cycle kinetic titration of TNFα on Adalimumab or on the Adalimumab-pM440 complex
[3] = target: Adalimumab–pM440 complex (Mycoplasma genitalium) (UniProt P47523); assay: SPR

Substance	Kd [1] [nM]	Kd [2] [nM]	fold decrease in affinity against Adalimumab without pM440 [3] [fold]	koff [3] [s⁻¹]	kon [3] [M⁻¹ s⁻¹]
protein M440 (from UniProt P47523 1-440) (domain or fragment)	< 0.15				
TNFα (from UniProt P01375 1-233) (ligand)		2.94	3	0.00046	160000
